According to US20240287172A1 (SCIRHOM, published 2024):
Residue numbers refer to the chain shown, from its start.

T1: hiR2-FL-K536A-T7 (human, UniProt Q6PJF5 1-856)
T1 construct: on MEF-DKO cells
T1 sequence: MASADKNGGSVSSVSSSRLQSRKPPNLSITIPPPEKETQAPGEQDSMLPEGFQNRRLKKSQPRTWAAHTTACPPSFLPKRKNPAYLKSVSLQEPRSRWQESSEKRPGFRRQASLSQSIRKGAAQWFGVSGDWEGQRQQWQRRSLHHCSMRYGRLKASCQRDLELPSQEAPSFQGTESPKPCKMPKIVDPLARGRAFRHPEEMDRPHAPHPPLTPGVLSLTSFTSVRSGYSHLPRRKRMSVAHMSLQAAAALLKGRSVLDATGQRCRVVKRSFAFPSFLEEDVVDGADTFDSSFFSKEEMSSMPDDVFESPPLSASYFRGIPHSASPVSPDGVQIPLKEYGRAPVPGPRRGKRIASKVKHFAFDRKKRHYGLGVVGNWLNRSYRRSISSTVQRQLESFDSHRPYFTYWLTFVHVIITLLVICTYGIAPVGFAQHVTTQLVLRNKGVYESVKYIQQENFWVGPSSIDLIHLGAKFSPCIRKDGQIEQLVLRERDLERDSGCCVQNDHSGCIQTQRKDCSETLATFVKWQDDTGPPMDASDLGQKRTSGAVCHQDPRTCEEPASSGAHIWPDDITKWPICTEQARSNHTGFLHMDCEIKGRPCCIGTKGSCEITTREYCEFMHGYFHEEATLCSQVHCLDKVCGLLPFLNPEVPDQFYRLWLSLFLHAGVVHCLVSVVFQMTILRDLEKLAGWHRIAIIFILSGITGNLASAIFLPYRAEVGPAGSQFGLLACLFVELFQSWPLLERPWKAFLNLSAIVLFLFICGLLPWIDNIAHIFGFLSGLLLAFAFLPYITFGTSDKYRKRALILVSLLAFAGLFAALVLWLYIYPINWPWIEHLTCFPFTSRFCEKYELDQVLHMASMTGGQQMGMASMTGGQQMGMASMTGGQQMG

T2: hiR2-FL-M534S-T7 (human, UniProt Q6PJF5 1-856)
T2 sequence: T1 sequence with M534S, A536K

T3: hiR1-FL-WT-T7 (human, UniProt Q96CC6 1-855)
T3 construct: on MEF-DKO cells
T3 sequence: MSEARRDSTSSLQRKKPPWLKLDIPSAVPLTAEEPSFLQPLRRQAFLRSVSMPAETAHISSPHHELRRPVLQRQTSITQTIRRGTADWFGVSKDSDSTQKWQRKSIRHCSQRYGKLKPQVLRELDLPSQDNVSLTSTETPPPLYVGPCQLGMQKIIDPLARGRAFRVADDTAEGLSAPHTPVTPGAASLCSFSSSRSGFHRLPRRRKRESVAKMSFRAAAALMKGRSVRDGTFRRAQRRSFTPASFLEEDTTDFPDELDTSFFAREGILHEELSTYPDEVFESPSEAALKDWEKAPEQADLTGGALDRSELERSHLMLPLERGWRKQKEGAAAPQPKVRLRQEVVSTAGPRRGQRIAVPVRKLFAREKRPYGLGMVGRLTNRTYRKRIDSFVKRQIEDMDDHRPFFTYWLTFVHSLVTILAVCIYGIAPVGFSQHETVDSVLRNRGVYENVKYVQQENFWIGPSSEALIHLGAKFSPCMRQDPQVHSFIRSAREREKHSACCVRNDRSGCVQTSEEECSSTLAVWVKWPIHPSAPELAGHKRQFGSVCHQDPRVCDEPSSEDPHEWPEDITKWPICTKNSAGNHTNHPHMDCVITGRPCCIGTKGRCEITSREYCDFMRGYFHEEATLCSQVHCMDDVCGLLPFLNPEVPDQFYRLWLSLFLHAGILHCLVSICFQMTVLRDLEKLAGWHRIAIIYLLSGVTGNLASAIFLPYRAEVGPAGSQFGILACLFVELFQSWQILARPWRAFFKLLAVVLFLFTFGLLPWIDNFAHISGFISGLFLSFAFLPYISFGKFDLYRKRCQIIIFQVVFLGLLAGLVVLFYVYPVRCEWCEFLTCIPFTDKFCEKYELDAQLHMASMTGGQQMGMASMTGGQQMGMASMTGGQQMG

B1: antibody 5 (antibody, V domains shown)
VH: QVTLKESGPGILQPSQTLSLTCSFSGFSLSTFGMGVGWIRQPSGKGLEWLAHIWWDDEKYYNSALKSRLTISKATSKNQAFLKIANVDTADTATYYCARISNYGSNYWYFNVWGTGTTVTVSS
VL: QVVLTQSPALMSASPGEKVTMTCSAGSSVSCMYWYQQKPGSSPRVLIYDTSNLASGVPARFTGSGSGTSYSLTISRMEAEDAASYYCQQWNSYPLTFGAGTKLELK
notes: mouse IgG, kappa light chain; also called clone #5; purified antibody 5
B2: antibody 48 (antibody, V domains shown)
VH: QVQLQQSGTELVRPGTSVKVSCKASGYAFTNYLIEWVKQRPGQGLEWIGVINPGSGFTKYNEKFKGKATLTADKSSSTVYMHLSSLTSEDSAVYFCARGLYRAMDYWGQGTSVTVSS
VL: DIQMTQSPASQSASLGESVTITCLASQTIATWLAWYQQKPGKSPQLLIYGATTLADGVPSRFSGGGSGTKFSFKISSLQAEDFVSYYCQQLYSTPYTFGGGTKLEIK
notes: mouse IgG, kappa light chain; also called clone #48; purified antibody 48

How the values were obtained:
[1] = biological target: T1, hiR2-FL-K536A-T7; test: FACS on MEF-DKO-hiR2-FL-K536A-T7 cells
[2] = biological target: T2, hiR2-FL-M534S-T7; test: FACS, MEF-DKO cells, 3 µg/ml
[3] = biological target: T3, hiR1-FL-WT-T7; test: FACS, MEF-DKO-hiR1-FL-WT-T7 cells

| Binder | binding result [1] | loss of binding vs wild type [2] [%] | binding result [3] |
| --- | --- | --- | --- |
| B1 | no binding (tested: 3 µg/ml) | ≥ 30 |  |
| B2 |  |  | no binding (tested: 3 µg/ml) |
